# Measured values: patent US6933142 (University of California, dated 2005)
# T1: rGlyCAM-1/IgG (human, UniProt Q02596 20-151 (mouse entry), limits assumed, not fucosylated by FucT-VII, no sulfotransferase co-transfected)
# T1 sequence (looked up): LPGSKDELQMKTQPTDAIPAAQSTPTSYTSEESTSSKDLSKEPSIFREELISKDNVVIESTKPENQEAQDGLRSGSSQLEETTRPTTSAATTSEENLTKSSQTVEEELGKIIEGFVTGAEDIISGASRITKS
# T2: rGlyCAM-1/IgG FT KSGal6ST (human, UniProt Q02596 20-151 (mouse entry), limits assumed, glycans made in COS cells co-transfected with C2GnT, FucT-VII and KSGal6ST (fucosylated, Gal-6-sulfate))
# T2 sequence (looked up): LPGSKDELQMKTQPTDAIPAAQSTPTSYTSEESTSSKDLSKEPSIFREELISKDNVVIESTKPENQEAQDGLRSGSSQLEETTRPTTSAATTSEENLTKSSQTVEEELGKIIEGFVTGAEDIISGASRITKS
# T3: rGlyCAM-1/IgG FT huGlcNAc6ST (human, UniProt Q02596 20-151 (mouse entry), limits assumed, glycans made in COS cells co-transfected with C2GnT, FucT-VII and huGlcNAc6ST (fucosylated, GlcNAc-6-sulfate))
# T3 sequence (looked up): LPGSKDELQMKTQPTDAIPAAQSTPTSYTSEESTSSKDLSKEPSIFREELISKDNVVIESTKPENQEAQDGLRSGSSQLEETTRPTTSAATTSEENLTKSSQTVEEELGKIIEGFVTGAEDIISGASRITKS
# T4: rGlyCAM-1/IgG FT HEC-GlcNAc6ST (human, UniProt Q02596 20-151 (mouse entry), limits assumed, glycans made in COS cells co-transfected with C2GnT, FucT-VII and HEC-GlcNAc6ST (fucosylated, GlcNAc-6-sulfate))
# T4 sequence (looked up): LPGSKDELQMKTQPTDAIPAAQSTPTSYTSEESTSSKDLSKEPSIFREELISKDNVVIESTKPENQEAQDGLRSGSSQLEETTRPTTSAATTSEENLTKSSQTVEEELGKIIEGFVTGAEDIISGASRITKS
# Legend:
# [1] = biological target: CD34 on CHO/FTVII/C2GnT cells, no sulfotransferase cDNA; test: flow cytometry; CHO/FTVII/C2GnT cells with CD34 cDNA alone
# Sequence of CD34 on CHO/FTVII/C2GnT cells, no sulfotransferase cDNA (P28906 32-385): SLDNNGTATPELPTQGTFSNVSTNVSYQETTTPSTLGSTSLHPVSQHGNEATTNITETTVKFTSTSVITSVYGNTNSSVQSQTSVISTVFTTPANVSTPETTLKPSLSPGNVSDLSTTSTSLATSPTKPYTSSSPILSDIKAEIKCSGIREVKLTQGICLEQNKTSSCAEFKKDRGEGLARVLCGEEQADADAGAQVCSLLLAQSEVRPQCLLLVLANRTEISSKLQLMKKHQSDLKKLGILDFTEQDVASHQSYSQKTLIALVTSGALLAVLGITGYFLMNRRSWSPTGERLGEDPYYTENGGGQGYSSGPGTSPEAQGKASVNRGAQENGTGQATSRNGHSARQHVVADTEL
# [2] = biological target: CD34 on CHO/FTVII/C2GnT cells cotransfected with KSGal6ST cDNA; test: flow cytometry; CHO/FTVII/C2GnT cells with CD34 (2 µg) and 1.0 µg KSGal6ST cDNA
# Sequence of CD34 on CHO/FTVII/C2GnT cells cotransfected with KSGal6ST cDNA (P28906 32-385): as above
# [3] = biological target: CD34 on CHO/FTVII/C2GnT cells cotransfected with KSGal6ST cDNA; test: flow cytometry; CHO/FTVII/C2GnT cells with CD34 (2 µg) and 1.5 µg KSGal6ST cDNA
# [4] = biological target: CD34 on CHO/FTVII/C2GnT cells cotransfected with HEC-GlcNAc6ST cDNA; test: flow cytometry; CHO/FTVII/C2GnT cells with CD34 (2 µg) and 1 µg HEC-GlcNAc6ST cDNA
# Sequence of CD34 on CHO/FTVII/C2GnT cells cotransfected with HEC-GlcNAc6ST cDNA (P28906 32-385): as above
# [5] = biological target: CD34 on CHO/FTVII/C2GnT cells cotransfected with HEC-GlcNAc6ST cDNA; test: flow cytometry; CHO/FTVII/C2GnT cells with CD34 (2 µg) and 1.5 µg HEC-GlcNAc6ST cDNA
# [6] = biological target: CD34 on CHO/FTVII/C2GnT cells cotransfected with KSGal6ST and HEC-GlcNAc6ST cDNAs; test: flow cytometry; CHO/FTVII/C2GnT cells with CD34 (2 µg), 1 µg KSGal6ST and 0.5 µg HEC-GlcNAc6ST cDNA
# Sequence of CD34 on CHO/FTVII/C2GnT cells cotransfected with KSGal6ST and HEC-GlcNAc6ST cDNAs (P28906 32-385): as above
# [7] = biological target: CD34 on CHO/FTVII/C2GnT cells cotransfected with KSGal6ST and HEC-GlcNAc6ST cDNAs; test: flow cytometry; CHO/FTVII/C2GnT cells with CD34 (2 µg), 0.5 µg KSGal6ST and 0.5 µg HEC-GlcNAc6ST cDNA
# [8] = biological target: CD34 on CHO/FTVII/C2GnT cells cotransfected with KSGal6ST and HEC-GlcNAc6ST cDNAs; test: flow cytometry; CHO/FTVII/C2GnT cells with CD34 (2 µg), 0.5 µg KSGal6ST and 1.0 µg HEC-GlcNAc6ST cDNA
# [9] = biological target: L-selectin on Jurkat cells (UniProt P14151); test: cell-based or functional assay
# [10] = biological target: T1, rGlyCAM-1/IgG; test: cell-based or functional assay
# [11] = biological target: T2, rGlyCAM-1/IgG FT KSGal6ST; test: cell-based or functional assay
# [12] = biological target: T3, rGlyCAM-1/IgG FT huGlcNAc6ST; test: cell-based or functional assay
# [13] = biological target: T4, rGlyCAM-1/IgG FT HEC-GlcNAc6ST; test: cell-based or functional assay
molecule,measurement,setting,value
L-selectin/IgM chimera (from UniProt P18337 39-332; P01871 106-453) (Fc fusion),MFI (background signal),[1],139 MFI
same,MFI (background subtracted),[2],364 MFI
same,MFI (background subtracted),[3],391 MFI
same,MFI (background subtracted),[4],114 MFI
same,MFI (background subtracted),[5],163 MFI
same,MFI (background subtracted),[6],917 MFI
same,MFI (background subtracted),[7],935 MFI
same,MFI (background subtracted),[8],830 MFI
DREG56 (antibody),Rolling of Jurkat cells on rGlyCAM-1/IgG FT after treatment with 5 µg/ml DREG56 (rolling cells),[9],0
human HEC-GlcNAc6ST (enzyme) MLLPKKMKLLLFLVSQMAILALFFHMYSHNISSLSMKAQPERMHVLVLSSWRSGSSFVGQLFGQHPDVFYLMEPAWHVWMTFKQSTAWMLHMAVRDLIRAVFLCDMSVFDAYMEPGPRRQSSLFQWENSRALCSAPACDIIPQDEIIPRAHCRLLCSQQPFEVVEKACRSYSHVVLKEVRFFNLQSLYPLLKDPSLNLHIVHLVRDPRAVFRSRERTKGDLMIDSRIVMGQHEQKLKKEDQPYYVMQVICQSQLEIYKTIQSLPKALQERYLLVRYEDLARAPVAQTSRMYEFVGLEFLPHLQTWVHNITRGKGMGDHAFHTNARDALNVSQAWRWSLPYEKVSRLQKACGDAMNLLGYRHVRSEQEQRNLLLDLLSTWTVPEQIH,incorporation of ^35S-SO4 into the GlyCAM-1 chimera in co-transfected COS cells,[10],> 10 fold
"L-selectin on Jurkat cells (receptor, UniProt P14151 39-372, looked up) WTYHYSEKPMNWQRARRFCRDNYTDLVAIQNKAEIEYLEKTLPFSRSYYWIGIRKIGGIWTWVGTNKSLTEEAENWGDGEPNNKKNKEDCVEIYIKRNKDAGKWNDDACHKLKAALCYTASCQPWSCSGHGECVEIINNYTCNCDVGYYGPQCQFVIQCEPLEAPELGTMDCTHPLGNFSFSSQCAFSCSEGTNLTGIEETTCGPFGNWSSPEPTCQVIQCEPLSAPDLGIMNCSHPLASFSFTSACTFICSEGTELIGKKKTICESSGIWSNPSPICQKLDKSFSMIKEGDYNPLFIPVAVMVTAFSGLAFIIWLARRLKKGKKSKRSMNDPY",fraction of tethered cells relative to non-sulfated GlyCAM-1/IgG (FT),[11],6 fold
same,fraction of tethered cells relative to non-sulfated GlyCAM-1/IgG (FT),[12],2 fold
same,fraction of tethered cells relative to non-sulfated GlyCAM-1/IgG (FT),[13],2 fold
